Measurements reported in patent publication US20200262877A1, “ION CHANNEL-BINDING PEPTIDES AND METHODS OF USE THEREOF” (priority 2017, published 2020).

How the values were obtained:
α4β2 = target: T1, α4β2 (Homo sapiens, UniProt P17787+P43681); assay: Ion channel panel (IonWorks Barracuda): α4β2; format: cell-based; conditions: 100% = no change, <100% = inhibition
T1 construct: host or cells: HEK293 or CHO
Procedure, shortened: (§1)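 Peptides were tested in duplicate at final 20 μM and 200 nM, with concentration set by amino acid analysis, in HEPES-buffered saline. They were applied for at least 5 min to HEK293 or CHO cells transfected with each channel. Currents were expressed as % inhibition, 1-(Ipeptide/Icontrol)×100, or % activation, Ipeptide/Icontrol×100, against a channel-matched reference compound.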

5HT3a = target: T2, 5HT3a (Homo sapiens, UniProt P46098); assay: Ion channel panel (IonWorks Barracuda): 5HT3a; format: cell-based
T2 construct: host or cells: HEK293 or CHO
T2 sequence (P46098 whole entry, looked up): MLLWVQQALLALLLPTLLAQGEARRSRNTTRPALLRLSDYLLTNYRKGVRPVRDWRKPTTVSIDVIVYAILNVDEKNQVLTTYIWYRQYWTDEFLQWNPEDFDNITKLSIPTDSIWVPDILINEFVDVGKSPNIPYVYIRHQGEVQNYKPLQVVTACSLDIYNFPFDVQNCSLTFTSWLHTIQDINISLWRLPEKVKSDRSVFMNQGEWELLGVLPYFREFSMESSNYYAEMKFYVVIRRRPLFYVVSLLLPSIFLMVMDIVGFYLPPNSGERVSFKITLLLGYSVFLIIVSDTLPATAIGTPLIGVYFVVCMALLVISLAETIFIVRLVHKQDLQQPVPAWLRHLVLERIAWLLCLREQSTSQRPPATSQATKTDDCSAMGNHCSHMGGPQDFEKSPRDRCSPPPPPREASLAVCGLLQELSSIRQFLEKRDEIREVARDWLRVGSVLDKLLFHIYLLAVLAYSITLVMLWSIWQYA
Procedure, shortened: as §1

Kv1.2 = target: T3, Kv1.2 (Homo sapiens, UniProt P16389); assay: cell-based; format: cell-based; conditions: 100% = no change, <100% = inhibition
T3 construct: host or cells: HEK293 or CHO
Procedure, shortened: as §1

Kv1.1 = target: T4, Kv1.1 (Homo sapiens, UniProt Q09470); assay: cell-based; format: cell-based; conditions: 100% = no change, <100% = inhibition
T4 construct: host or cells: HEK293 or CHO
Procedure, shortened: as §1

Kv1.3 = target: T5, Kv1.3 (Homo sapiens, UniProt P22001); assay: cell-based; format: cell-based; conditions: 100% = no change, <100% = inhibition
T5 construct: host or cells: HEK293 or CHO
Procedure, shortened: as §1

NR2B = target: T6, NR2B (Homo sapiens, UniProt Q13224); assay: Ion channel panel (IonWorks Barracuda): NR2B; format: cell-based; conditions: 100% = no change, <100% = inhibition
T6 construct: host or cells: HEK293 or CHO
Procedure, shortened: as §1

Cav2.1 = target: T7, Cav2.1 (Homo sapiens, UniProt O00555); assay: cell-based; conditions: 100% = no change, <100% = inhibition
T7 construct: host or cells: HEK293 or CHO
Procedure, shortened: as §1

Kv2.1 = target: T8, Kv2.1 (Homo sapiens, UniProt Q14721); assay: cell-based; conditions: 100% = no change, <100% = inhibition
T8 construct: host or cells: HEK293 or CHO
Procedure, shortened: as §1

Cav2.2 = target: T9, Cav2.2 (Homo sapiens, UniProt Q00975); assay: cell-based; conditions: 100% = no change, <100% = inhibition
T9 construct: host or cells: HEK293 or CHO
Procedure, shortened: as §1

hERG = hERG (Homo sapiens, UniProt Q12809); assay: in vitro; conditions: 100% = no change, <100% = inhibition
Procedure, shortened: as §1

Nav1.5 = Nav1.5 (Homo sapiens, UniProt Q14524); assay: in vitro; conditions: 100% = no change; for Activity of Nav1.5 with peptide, expressed as a percentage of the reference compound: peptide at 0.2 μM; for Activity of Nav1.5 with peptide (percentage of the reference compound): peptide at 20 μM
Procedure, shortened: as §1

α3β4 = target: T10, α3β4 (Homo sapiens, UniProt P30926+P32297); assay: Ion channel panel (IonWorks Barracuda): α3β4; format: cell-based; conditions: 100% = no change, <100% = inhibition
T10 construct: host or cells: HEK293 or CHO
Procedure, shortened: as §1

TRPV1 = target: T11, TRPV1 (Homo sapiens, UniProt Q8NER1); assay: Ion channel panel (IonWorks Barracuda): TRPV1; format: cell-based; conditions: 100% = no change, <100% = inhibition
T11 construct: host or cells: HEK293 or CHO
Procedure, shortened: as §1

GABA = assay: Ion channel panel (IonWorks Barracuda): GABA; format: cell-based; conditions: 100% = no change, <100% = inhibition
Procedure, shortened: as §1

Kir2.1 = target: T12, Kir2.1 (Homo sapiens, UniProt P63252); assay: Ion channel panel (IonWorks Barracuda): Kir2.1; format: cell-based; conditions: 100% = no change, <100% = inhibition
T12 construct: host or cells: HEK293 or CHO
Procedure, shortened: as §1

NR2A = target: T13, NR2A (Homo sapiens, UniProt Q12879); assay: Ion channel panel (IonWorks Barracuda): NR2A; format: cell-based; conditions: 100% = no change, <100% = inhibition
T13 construct: host or cells: HEK293 or CHO
Procedure, shortened: as §1

TRPA1 = target: T14, TRPA1 (Homo sapiens, UniProt O75762); assay: Ion channel panel (IonWorks Barracuda): TRPA1; format: cell-based; conditions: 100% = no change, <100% = inhibition
T14 construct: host or cells: HEK293 or CHO
Procedure, shortened: as §1

Nav1.7 = target: T15, Nav1.7 (Homo sapiens, UniProt Q15858); assay: cell-based; format: cell-based; conditions: 100% = no change; for Activity of Nav1.7 with peptide, expressed as a percentage of the reference compound: peptide at 0.2 μM; for Activity of Nav1.7 with peptide (percentage of the reference compound): peptide at 20 μM
T15 construct: host or cells: HEK293 or CHO

[1] = first of two Nav1.5 columns (probably TP1)
[2] = second of two Nav1.5 columns (probably TP2)
[3] = first of two Nav1.7 columns (probably TP1)
[4] = second of two Nav1.7 columns (probably TP2)

Sequence of Nav1.5 (Q14524 whole entry): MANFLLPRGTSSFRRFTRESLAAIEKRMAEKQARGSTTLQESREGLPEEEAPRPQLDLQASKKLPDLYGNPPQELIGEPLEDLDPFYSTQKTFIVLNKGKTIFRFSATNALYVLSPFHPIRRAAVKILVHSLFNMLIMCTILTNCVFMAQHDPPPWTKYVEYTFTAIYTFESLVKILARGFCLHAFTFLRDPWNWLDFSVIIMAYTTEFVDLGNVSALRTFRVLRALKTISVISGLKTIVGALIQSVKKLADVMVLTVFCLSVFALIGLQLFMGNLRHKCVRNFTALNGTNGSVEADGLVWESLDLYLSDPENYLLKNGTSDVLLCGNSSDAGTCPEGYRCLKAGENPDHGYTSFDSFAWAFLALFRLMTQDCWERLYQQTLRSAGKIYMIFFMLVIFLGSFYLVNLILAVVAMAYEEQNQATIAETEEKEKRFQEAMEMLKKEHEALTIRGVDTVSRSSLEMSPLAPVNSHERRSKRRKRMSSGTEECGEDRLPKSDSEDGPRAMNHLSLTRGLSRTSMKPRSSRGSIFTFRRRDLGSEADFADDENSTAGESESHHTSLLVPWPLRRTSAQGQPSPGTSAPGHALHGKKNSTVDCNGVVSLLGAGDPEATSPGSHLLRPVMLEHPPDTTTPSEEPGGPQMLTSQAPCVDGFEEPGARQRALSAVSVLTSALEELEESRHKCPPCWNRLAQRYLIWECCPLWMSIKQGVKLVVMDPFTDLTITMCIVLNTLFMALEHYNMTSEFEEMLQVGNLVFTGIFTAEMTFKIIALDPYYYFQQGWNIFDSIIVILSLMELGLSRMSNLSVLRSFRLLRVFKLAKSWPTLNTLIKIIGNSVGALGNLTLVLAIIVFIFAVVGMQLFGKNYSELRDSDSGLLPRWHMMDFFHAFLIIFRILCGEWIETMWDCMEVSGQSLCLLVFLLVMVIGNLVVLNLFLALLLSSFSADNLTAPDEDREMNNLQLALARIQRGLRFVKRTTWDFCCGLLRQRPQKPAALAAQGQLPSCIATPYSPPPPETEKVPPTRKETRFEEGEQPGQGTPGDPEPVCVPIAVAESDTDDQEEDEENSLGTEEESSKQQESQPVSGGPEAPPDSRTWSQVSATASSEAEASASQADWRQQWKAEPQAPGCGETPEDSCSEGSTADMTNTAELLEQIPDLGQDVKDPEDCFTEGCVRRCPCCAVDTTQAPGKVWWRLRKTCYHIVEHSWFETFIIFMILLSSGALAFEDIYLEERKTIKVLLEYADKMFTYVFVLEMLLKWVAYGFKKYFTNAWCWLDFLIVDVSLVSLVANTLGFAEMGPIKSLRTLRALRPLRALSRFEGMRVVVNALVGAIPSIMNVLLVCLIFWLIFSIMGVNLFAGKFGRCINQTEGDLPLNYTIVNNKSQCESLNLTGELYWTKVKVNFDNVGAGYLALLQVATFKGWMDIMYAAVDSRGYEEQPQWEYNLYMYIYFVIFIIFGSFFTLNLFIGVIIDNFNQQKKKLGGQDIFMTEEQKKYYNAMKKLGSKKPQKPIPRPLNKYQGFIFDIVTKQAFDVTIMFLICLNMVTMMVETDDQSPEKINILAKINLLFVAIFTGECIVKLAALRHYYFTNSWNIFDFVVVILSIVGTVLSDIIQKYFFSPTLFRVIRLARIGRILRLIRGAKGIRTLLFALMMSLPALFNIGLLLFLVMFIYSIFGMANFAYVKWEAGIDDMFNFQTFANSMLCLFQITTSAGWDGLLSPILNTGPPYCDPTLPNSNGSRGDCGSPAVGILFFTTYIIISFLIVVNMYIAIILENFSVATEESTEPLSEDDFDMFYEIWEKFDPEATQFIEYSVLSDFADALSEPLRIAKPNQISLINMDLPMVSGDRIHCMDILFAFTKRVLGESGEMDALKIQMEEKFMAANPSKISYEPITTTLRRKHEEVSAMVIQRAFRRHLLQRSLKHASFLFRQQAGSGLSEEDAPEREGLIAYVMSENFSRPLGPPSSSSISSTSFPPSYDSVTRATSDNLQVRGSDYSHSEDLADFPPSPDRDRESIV
T15 sequence (Q15858 whole entry): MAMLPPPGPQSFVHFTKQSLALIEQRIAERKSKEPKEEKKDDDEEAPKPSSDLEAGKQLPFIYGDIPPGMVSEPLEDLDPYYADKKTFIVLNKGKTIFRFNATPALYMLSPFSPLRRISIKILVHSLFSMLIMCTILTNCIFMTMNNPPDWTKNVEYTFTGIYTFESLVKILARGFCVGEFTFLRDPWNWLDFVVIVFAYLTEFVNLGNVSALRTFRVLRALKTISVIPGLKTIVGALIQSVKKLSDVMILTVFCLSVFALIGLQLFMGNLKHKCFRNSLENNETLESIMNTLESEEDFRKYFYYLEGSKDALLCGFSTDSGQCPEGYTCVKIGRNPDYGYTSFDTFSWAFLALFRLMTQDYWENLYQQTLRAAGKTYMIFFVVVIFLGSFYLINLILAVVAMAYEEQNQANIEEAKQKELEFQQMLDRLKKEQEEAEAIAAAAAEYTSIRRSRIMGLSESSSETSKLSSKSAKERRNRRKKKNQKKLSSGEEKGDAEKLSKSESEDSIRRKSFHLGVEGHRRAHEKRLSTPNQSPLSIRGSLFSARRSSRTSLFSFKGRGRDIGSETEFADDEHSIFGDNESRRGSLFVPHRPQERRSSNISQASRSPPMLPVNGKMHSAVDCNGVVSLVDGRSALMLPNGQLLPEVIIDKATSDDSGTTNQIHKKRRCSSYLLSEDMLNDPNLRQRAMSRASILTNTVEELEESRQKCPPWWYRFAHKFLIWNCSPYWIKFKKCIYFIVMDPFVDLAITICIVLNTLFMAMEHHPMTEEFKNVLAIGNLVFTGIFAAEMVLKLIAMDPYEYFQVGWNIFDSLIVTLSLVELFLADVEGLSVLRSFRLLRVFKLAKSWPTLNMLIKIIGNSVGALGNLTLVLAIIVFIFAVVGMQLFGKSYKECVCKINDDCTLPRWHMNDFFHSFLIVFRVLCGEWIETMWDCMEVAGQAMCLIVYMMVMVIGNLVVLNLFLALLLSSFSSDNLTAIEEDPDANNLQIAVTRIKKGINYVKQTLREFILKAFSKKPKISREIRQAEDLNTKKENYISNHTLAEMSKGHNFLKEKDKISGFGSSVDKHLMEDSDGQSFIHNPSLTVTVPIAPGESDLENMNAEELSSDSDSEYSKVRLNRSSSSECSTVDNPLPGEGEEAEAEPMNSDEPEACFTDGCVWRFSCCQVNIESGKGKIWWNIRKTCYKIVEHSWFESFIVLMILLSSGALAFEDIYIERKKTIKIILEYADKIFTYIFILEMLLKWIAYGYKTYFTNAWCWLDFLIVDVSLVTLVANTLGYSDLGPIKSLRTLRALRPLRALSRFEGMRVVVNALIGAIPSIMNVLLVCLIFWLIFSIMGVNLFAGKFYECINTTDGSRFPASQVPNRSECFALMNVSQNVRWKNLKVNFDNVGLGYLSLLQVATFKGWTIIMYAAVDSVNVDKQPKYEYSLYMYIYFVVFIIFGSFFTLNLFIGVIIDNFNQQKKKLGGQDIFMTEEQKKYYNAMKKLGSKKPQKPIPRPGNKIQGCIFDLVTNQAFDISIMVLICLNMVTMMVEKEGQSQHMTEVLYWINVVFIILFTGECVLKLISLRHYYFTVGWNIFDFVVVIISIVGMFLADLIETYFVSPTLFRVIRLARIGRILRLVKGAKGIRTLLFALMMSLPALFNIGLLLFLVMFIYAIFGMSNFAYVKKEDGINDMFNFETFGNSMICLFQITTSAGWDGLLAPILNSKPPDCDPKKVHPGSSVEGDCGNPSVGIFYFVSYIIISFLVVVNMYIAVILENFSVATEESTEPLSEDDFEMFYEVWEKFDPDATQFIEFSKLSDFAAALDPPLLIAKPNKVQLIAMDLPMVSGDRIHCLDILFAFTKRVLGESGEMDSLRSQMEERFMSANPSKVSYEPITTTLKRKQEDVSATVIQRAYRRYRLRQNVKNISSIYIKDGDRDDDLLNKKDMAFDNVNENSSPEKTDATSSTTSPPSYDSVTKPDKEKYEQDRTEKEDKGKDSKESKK
T10 sequence (P30926 22-498): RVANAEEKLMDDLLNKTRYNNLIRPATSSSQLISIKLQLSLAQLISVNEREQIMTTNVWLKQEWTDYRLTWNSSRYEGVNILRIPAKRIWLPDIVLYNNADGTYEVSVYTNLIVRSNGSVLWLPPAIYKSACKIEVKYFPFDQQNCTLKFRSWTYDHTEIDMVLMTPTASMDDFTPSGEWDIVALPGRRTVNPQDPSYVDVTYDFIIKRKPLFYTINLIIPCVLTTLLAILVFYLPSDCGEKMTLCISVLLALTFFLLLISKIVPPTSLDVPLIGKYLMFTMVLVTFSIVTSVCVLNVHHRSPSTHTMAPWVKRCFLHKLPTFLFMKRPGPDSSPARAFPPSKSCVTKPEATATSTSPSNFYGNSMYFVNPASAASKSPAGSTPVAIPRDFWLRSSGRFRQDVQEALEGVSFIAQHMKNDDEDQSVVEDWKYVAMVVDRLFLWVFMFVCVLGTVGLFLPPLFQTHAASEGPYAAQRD
T10 sequence (P32297 32-505): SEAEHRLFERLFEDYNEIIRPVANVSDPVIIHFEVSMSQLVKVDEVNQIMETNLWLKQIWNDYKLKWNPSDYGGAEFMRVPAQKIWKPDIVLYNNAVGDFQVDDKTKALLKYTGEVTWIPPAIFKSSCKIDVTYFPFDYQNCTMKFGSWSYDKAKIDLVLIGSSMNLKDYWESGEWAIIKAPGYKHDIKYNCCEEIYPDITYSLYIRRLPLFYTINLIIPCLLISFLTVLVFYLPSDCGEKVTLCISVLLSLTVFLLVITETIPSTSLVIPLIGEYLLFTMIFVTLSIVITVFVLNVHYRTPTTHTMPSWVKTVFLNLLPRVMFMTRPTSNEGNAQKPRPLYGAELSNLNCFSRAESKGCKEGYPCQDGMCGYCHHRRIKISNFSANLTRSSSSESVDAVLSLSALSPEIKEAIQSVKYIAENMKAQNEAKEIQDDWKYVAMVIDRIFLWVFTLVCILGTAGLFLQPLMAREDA

21 (GSAEIIRCSGTRECYAPCQKLTGCLNAKCMNKACKCYGCV) [compound 21]
Activity of a4b2 with peptide, expressed as a percentage of the reference compound (α4β2; peptide at 0.2 μM): 102% | Activity of a4b2 with peptide (percentage of the reference compound) (α4β2; peptide at 20 μM): 85% | Activity of 5HT3a with peptide (percentage of the reference compound) (5HT3a): 91% | Activity of 5HT3a with peptide, expressed as a percentage of the reference compound (5HT3a): 87% | Activity of Kv1.2 with peptide, expressed as a percentage of the reference compound (Kv1.2; peptide at 0.2 μM): 52% | Activity of Kv1.2 with peptide (percentage of the reference compound) (Kv1.2; peptide at 20 μM): 36% | Activity of Kv1.1 with peptide, expressed as a percentage of the reference compound (Kv1.1; peptide at 0.2 μM): 106% | Activity of Kv1.1 with peptide (percentage of the reference compound) (Kv1.1; peptide at 20 μM): 98% | Activity of Kv1.3 with peptide, expressed as a percentage of the reference compound (Kv1.3; peptide at 0.2 μM): 65% | Activity of Kv1.3 with peptide (percentage of the reference compound) (Kv1.3; peptide at 20 μM): 5% | Activity of NR2B with peptide, expressed as a percentage of the reference compound (NR2B; peptide at 0.2 μM): 113% | Activity of NR2B with peptide (percentage of the reference compound) (NR2B; peptide at 20 μM): 105% | Activity of Cav2.1 with peptide, expressed as a percentage of the reference compound (Cav2.1; peptide at 0.2 μM): 103% | Activity of Cav2.1 with peptide (percentage of the reference compound) (Cav2.1; peptide at 20 μM): 106% | Activity of Kv2.1 with peptide, expressed as a percentage of the reference compound (Kv2.1; peptide at 0.2 μM): 110% | Activity of Kv2.1 with peptide (percentage of the reference compound) (Kv2.1; peptide at 20 μM): 108% | Activity of Cav2.2 with peptide, expressed as a percentage of the reference compound (Cav2.2; peptide at 0.2 μM): 98% | Activity of Cav2.2 with peptide (percentage of the reference compound) (Cav2.2; peptide at 20 μM): 105% | Activity of hERG with peptide, expressed as a percentage of the reference compound (hERG; peptide at 0.2 μM): 109% | Activity of hERG with peptide (percentage of the reference compound) (hERG; peptide at 20 μM): 72% | Activity of Nav1.5 with peptide, expressed as a percentage of the reference compound (Nav1.5; [1]): 108% | Activity of Nav1.5 with peptide, expressed as a percentage of the reference compound (Nav1.5; [2]): 105% | Activity of Nav1.5 with peptide (percentage of the reference compound) (Nav1.5; [1]): 96% | Activity of Nav1.5 with peptide (percentage of the reference compound) (Nav1.5; [2]): 91% | Activity of a3b4 with peptide, expressed as a percentage of the reference compound (α3β4; peptide at 0.2 μM): 102% | Activity of a3b4 with peptide (percentage of the reference compound) (α3β4; peptide at 20 μM): 93% | Activity of TRPV1 with peptide, expressed as a percentage of the reference compound (TRPV1; peptide at 0.2 μM): 106% | Activity of TRPV1 with peptide (percentage of the reference compound) (TRPV1; peptide at 20 μM): 86% | Activity of GABA with peptide, expressed as a percentage of the reference compound (GABA; peptide at 0.2 μM): 111% | Activity of GABA with peptide (percentage of the reference compound) (GABA; peptide at 20 μM): 123% | Activity of Kir2.1 with peptide, expressed as a percentage of the reference compound (Kir2.1; peptide at 0.2 μM): 105% | Activity of Kir2.1 with peptide (percentage of the reference compound) (Kir2.1; peptide at 20 μM): 101% | Activity of NR2A with peptide, expressed as a percentage of the reference compound (NR2A; peptide at 0.2 μM): 105% | Activity of NR2A with peptide (percentage of the reference compound) (NR2A; peptide at 20 μM): 103% | Activity of TRPA1 with peptide, expressed as a percentage of the reference compound (TRPA1; peptide at 0.2 μM): 119% | Activity of TRPA1 with peptide (percentage of the reference compound) (TRPA1; peptide at 20 μM): 95% | Activity of Nav1.7 with peptide, expressed as a percentage of the reference compound (Nav1.7; [3]): 112% | Activity of Nav1.7 with peptide, expressed as a percentage of the reference compound (Nav1.7; [4]): 120% | Activity of Nav1.7 with peptide (percentage of the reference compound) (Nav1.7; [3]): 105% | Activity of Nav1.7 with peptide (percentage of the reference compound) (Nav1.7; [4]): 123%
